{"source": "paper PMC10967448", "about": "“ApoE Mimetic Peptide COG1410 Kills Mycobacterium smegmatis via Directly Interfering ClpC’s ATPase Activity” (Antibiotics, 2024)", "key": {"[1]": {"target": "T1, ClpC (M. smegmatis AAA+ unfoldase, Clp-ATPase) (M. smegmatis)", "T1 construct": "open reading frame amplified from genomic DNA of the wild-type strain; also called recombinant protein ClpC; source: E. coli BL21 (DE3), pET28a, purified (IMAC on Ni Sepharose 6 FF, desalting)", "test": "SPR; Biacore 8K; ClpC or ClpC (S437P) amine-coupled on a CM5 chip at pH 4.0 (around 6500 RU); COG1410 flowed at 125 to 2000 nM (2-fold dilutions); PBS pH 7.4, 0.05% tween-20, 25 °C, 30 μL/min; 1:1 Langmuir binding model", "settings": "both partners purified"}, "ClpC (S437P) [2]": {"target": "T2, ClpC (S437P) (M. smegmatis)", "T2 construct": "also called ClpC variant; ClpC (S437P) variant; source: E. coli BL21 (DE3), pET28a, purified (IMAC on Ni Sepharose 6 FF, desalting)", "test": "SPR; Biacore 8K; ClpC or ClpC (S437P) amine-coupled on a CM5 chip at pH 4.0 (around 6500 RU); COG1410 flowed at 125 to 2000 nM (2-fold dilutions); PBS pH 7.4, 0.05% tween-20, 25 °C, 30 μL/min; 1:1 Langmuir binding model", "settings": "both partners purified"}, "[3]": {"target": "T1, ClpC (M. smegmatis AAA+ unfoldase, …)", "test": "cell-based or functional assay"}, "ClpC (S437P) [4]": {"target": "T2, ClpC (S437P)", "test": "cell-based or functional assay"}}, "note": "Square brackets hold non-standard residues; d marks the D form. Ends that are not written are not given here. Aib = CC(C)(N)C(=O)O"}
{"binder": "AS[Aib]LRKL[Aib]KRLL (not fully specified (N-terminus, C-terminus))", "note": "[COG1410]", "values": [{"measurement": "Kd", "setting": "[1]", "value": 2030, "unit": "nM"}, {"measurement": "koff", "setting": "[1]", "value": 0.0117, "unit": "s⁻¹"}, {"measurement": "kon", "setting": "[1]", "value": 5780, "unit": "M⁻¹ s⁻¹"}, {"measurement": "Kd", "setting": "ClpC (S437P) [2]", "value": 1310, "unit": "nM"}, {"measurement": "koff", "setting": "ClpC (S437P) [2]", "value": 0.0119, "unit": "s⁻¹"}, {"measurement": "kon", "setting": "ClpC (S437P) [2]", "value": 9900, "unit": "M⁻¹ s⁻¹"}, {"measurement": "ATPase activity of purified ClpC (64 nM) with COG1410, dose series; at 10 μM COG1410 against ClpC alone", "setting": "[3]", "value": "~3", "unit": "fold"}, {"measurement": "proteolytic activity on FITC-casein in the ClpCP1P2 system with 10 μM COG1410", "setting": "[3]", "value": 4, "unit": "fold"}, {"measurement": "ATPase activity of purified ClpC (S437P) (64 nM) with 10 μM COG1410 against ClpC alone", "setting": "ClpC (S437P) [4]", "value": "~7.4", "unit": "fold"}, {"measurement": "proteolytic activity on FITC-casein in the S437PP1P2 system with COG1410 against the control with ClpC alone", "setting": "ClpC (S437P) [4]", "value": "~7", "unit": "fold"}]}
